Results: the supplement of paper PMC5998384

Experiments:
HeLa Kyoto [1] = test: solubility change mitosis vs G1/S (difference of NP-40 vs SDS log2 ratios) (log2 ratio difference); higher = more soluble in mitosis
HeLa Kyoto [2] = test: melting temperature (median over replicates), in situ; higher = more thermally stable
HeLa Kyoto [3] = test: solubility in G1/S (NP-40 vs SDS abundance) (log2 ratio); higher = more soluble; conditions: cell cycle stage: G1/S
HeLa Kyoto [4] = test: thermal stability score vs G1/S (z-score of summed log2 fold changes over temperatures); higher = more thermally stable than in G1/S
[5] = cell cycle stage: early G1 (4.5 h after nocodazole release)
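For melting temperature (median over replicates), in situ in this document: HeLa Kyoto cells synchronized by double thymidine or nocodazole block, proteins quantified by TMT10plex mass spectrometry, three independent biological replicates.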
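For solubility change mitosis vs G1/S (difference of NP-40 vs SDS log2 ratios) in this document: synchronized HeLa Kyoto cells (double thymidine block for G1/S, nocodazole release for mitosis), protein amounts in NP-40 versus SDS lysates quantified by mass spectrometry, three biological replicates.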
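For solubility in G1/S (NP-40 vs SDS abundance) in this document: HeLa Kyoto cells arrested at G1/S by double thymidine block, proteins quantified by TMT10plex mass spectrometry in mild NP-40 versus SDS extracts, three biological replicates.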
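For thermal stability score vs G1/S (z-score of summed log2 fold changes over temperatures) in this document: synchronized HeLa Kyoto cells, proteins quantified by TMT10plex mass spectrometry, three biological replicates, mitosis taken 0.5 h after nocodazole release, G1/S directly after double thymidine block.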

Sequence of PPIC (chain, as listed by the source): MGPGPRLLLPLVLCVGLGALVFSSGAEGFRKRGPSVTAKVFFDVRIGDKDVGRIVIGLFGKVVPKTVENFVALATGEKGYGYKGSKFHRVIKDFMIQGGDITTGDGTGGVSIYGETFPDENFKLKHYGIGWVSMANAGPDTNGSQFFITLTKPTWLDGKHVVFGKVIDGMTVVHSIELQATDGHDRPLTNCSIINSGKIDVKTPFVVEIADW

| Substance | solubility change mitosis (log2) (HeLa Kyoto [1]) | melting temperature (HeLa Kyoto [2]; cell cycle stage: G1/S) | melting temperature (HeLa Kyoto [2]; cell cycle stage: mitosis) | solubility in G1/S (log2) (HeLa Kyoto [3]) | thermal stability score (HeLa Kyoto [4]; [5]) | thermal stability score (HeLa Kyoto [4]; cell cycle stage: mitosis) |
| --- | --- | --- | --- | --- | --- | --- |
| MAMDSSLQARLFPGLAIKIQRSNGLIHSANVRTVNLEKSCVSVEWAEGGATKGKEIDFDDVAAINPELLQLLPLHPKDNLPLQENVTIQKQKRRSVNSKIPAPKESLRSRSTRMSTVSELRITAQENDMEVELPAAANSRKQFSVPPAPTRPSCPAVAEIPLRMVSEEMEEQVHSIRGSSSANPVNSVRRKSCLVKEVEKMKNKREEKKAQNSEMRMKRAQEYDSSFPNWEFARMIKEFRATLECHPLTMTDPIEEHRICVCVRKRPLNKQELAKKEIDVISIPSKCLLLVHEPKLKVDLTKYLENQAFCFDFAFDETASNEVVYRFTARPLVQTIFEGGKATCFAYGQTGSGKTHTMGGDLSGKAQNASKGIYAMASRDVFLLKNQPCYRKLGLEVYVTFFEIYNGKLFDLLNKKAKLRVLEDGKQQVQVVGLQEHLVNSADDVIKMIDMGSACRTSGQTFANSNSSRSHACFQIILRAKGRMHGKFSLVDLAGNERGADTSSADRQTRMEGAEINKSLLALKECIRALGQNKAHTPFRESKLTQVLRDSFIGENSRTCMIATISPGISSCEYTLNTLRYADRVKELSPHSGPSGEQLIQMETEEMEACSNGALIPGNLSKEEEELSSQMSSFNEAMTQIRELEEKAMEELKEIIQQGPDWLELSEMTEQPDYDLETFVNKAESALAQQAKHFSALRDVIKALRLAMQLEEQASRQISSKKRPQ [KIF2C] | -0.0369 | 48.6 °C | 49.5 °C | -0.0225 | 2.01 | 3.27 |
| MGDHAWSFLKDFLAGGVAAAVSKTAVAPIERVKLLLQVQHASKQISAEKQYKGIIDCVVRIPKEQGFLSFWRGNLANVIRYFPTQALNFAFKDKYKQLFLGGVDRHKQFWRYFAGNLASGGAAGATSLCFVYPLDFARTRLAADVGKGAAQREFHGLGDCIIKIFKSDGLRGLYQGFNVSVQGIIIYRAAYFGVYDTAKGMLPDPKNVHIFVSWMIAQSVTAVAGLVSYPFDTVRRRMMMQSGRKGADIMYTGTVDCWRKIAKDEGAKAFFKGAWSNVLRGMGGAFVLVLYDEIKKYV [SLC25A4] | -0.117 | 58.1 °C | 56.4 °C | -0.352 | -2.08 | -1.11 |
| MDLENKVKKMGLGHEQGFGAPCLKCKEKCEGFELHFWRKICRNCKCGQEEHDVLLSNEEDRKVGKLFEDTKYTTLIAKLKSDGIPMYKRNVMILTNPVAAKKNVSINTVTYEWAPPVQNQALARQYMQMLPKEKQPVAGSEGAQYRKKQLAKQLPAHDQDPSKCHELSPREVKEMEQFVKKYKSEALGVGDVKLPCEMDAQGPKQMNIPGGDRSTPAAVGAMEDKSAEHKRTQYSCYCCKLSMKEGDPAIYAERAGYDKLWHPACFVCSTCHELLVDMIYFWKNEKLYCGRHYCDSEKPRCAGCDELIFSNEYTQAENQNWHLKHFCCFDCDSILAGEIYVMVNDKPVCKPCYVKNHAVVCQGCHNAIDPEVQRVTYNNFSWHASTECFLCSCCSKCLIGQKFMPVEGMVFCSVECKKRMS [TES] | -0.111 | 52 °C | 52.3 °C | 0.0767 | -0.92 | -1.54 |
| MAENPSLENHRIKSFKNKGRDVETMRRHRNEVTVELRKNKRDEHLLKKRNVPQEESLEDSDVDADFKAQNVTLEAILQNATSDNPVVQLSAVQAARKLLSSDRNPPIDDLIKSGILPILVKCLERDDNPSLQFEAAWALTNIASGTSAQTQAVVQSNAVPLFLRLLRSPHQNVCEQAVWALGNIIGDGPQCRDYVISLGVVKPLLSFISPSIPITFLRNVTWVIVNLCRNKDPPPPMETVQEILPALCVLIYHTDINILVDTVWALSYLTDGGNEQIQMVIDSGVVPFLVPLLSHQEVKVQTAALRAVGNIVTGTDEQTQVVLNCDVLSHFPNLLSHPKEKINKEAVWFLSNITAGNQQQVQAVIDAGLIPMIIHQLAKGDFGTQKEAAWAISNLTISGRKDQVEYLVQQNVIPPFCNLLSVKDSQVVQVVLDGLKNILIMAGDEASTIAEIIEECGGLEKIEVLQQHENEDIYKLAFEIIDQYFSGDDIDEDPCLIPEATQGGTYNFDPTANLQTKEFNF [KPNA3] | -0.0814 | 49 °C | 50.5 °C | 0.128 | 1.67 | 4.62 |
| MAEGDEAARGQQPHQGLWRRRRTSDPSAAVNHVSSTTSLGENYEDDDLVNSDEVMKKPCPVQIVLAHEDDHNFELDEEALEQILLQEHIRDLNIVVVSVAGAFRKGKSFLLDFMLRYMYNKDSQSWIGGNNEPLTGFTWRGGCERETTGIQVWNEVFVIDRPNGTKVAVLLMDTQGAFDSQSTIKDCATVFALSTMTSSVQVYNLSQNIQEDDLQHLQLFTEYGRLAMEEIYQKPFQTLMFLIRDWSYPYEHSYGLEGGKQFLEKRLQVKQNQHEELQNVRKHIHNCFSNLGCFLLPHPGLKVATNPSFDGRLKDIDEDFKRELRNLVPLLLAPENLVEKEISGSKVTCRDLVEYFKAYIKIYQGEELPHPKSMLQATAEANNLAAVAGARDTYCKSMEQVCGGDKPYIAPSDLERKHLDLKEVAIKQFRSVKKMGGDEFCRRYQDQLEAEIEETYANFIKHNDGKNIFYAARTPATLFAVMFAMYIISGLTGFIGLNSIAVLCNLVMGLALIFLCTWAYVKYSGEFREIGTVIDQIAETLWEQVLKPLGDNLMEENIRQSVTNSIKAGLTDQVSHHARLKTD [ATL2] | -0.192 | 51.8 °C | 51.8 °C | -0.0336 | -0.416 | -0.584 |
| MECPHLSSSVCIAPDSAKFPNGSPSSWCCSVCRSNKSPWVCLTCSSVHCGRYVNGHAKKHYEDAQVPLTNHKKSEKQDKVQHTVCMDCSSYSTYCYRCDDFVVNDTKLGLVQKVREHLQNLENSAFTADRHKKRKLLENSTLNSKLLKVNGSTTAICATGLRNLGNTCFMNAILQSLSNIEQFCCYFKELPAVELRNGKTAGRRTYHTRSQGDNNVSLVEEFRKTLCALWQGSQTAFSPESLFYVVWKIMPNFRGYQQQDAHEFMRYLLDHLHLELQGGFNGVSRSAILQENSTLSASNKCCINGASTVVTAIFGGILQNEVNCLICGTESRKFDPFLDLSLDIPSQFRSKRSKNQENGPVCSLRDCLRSFTDLEELDETELYMCHKCKKKQKSTKKFWIQKLPKVLCLHLKRFHWTAYLRNKVDTYVEFPLRGLDMKCYLLEPENSGPESCLYDLAAVVVHHGSGVGSGHYTAYATHEGRWFHFNDSTVTLTDEETVVKAKAYILFYVEHQAKAGSDKL [USP3] | -0.13 | 49.4 °C | 49.4 °C | -0.0307 | 0.817 | 1.54 |
| MMEESGIETTPPGTPPPNPAGLAATAMSSTPVPLAATSSFSSPNVSSMESFPPLAYSTPQPPLPPVRPSAPLPFVPPPAVPSVPPLVTSMPPPVSPSTAAAFGNPPVSHFPPSTSAPNTLLPAPPSGPPISGFSVGSTYDITRGHAGRAPQTPLMPSFSAPSGTGLLPTPITQQASLTSLAQGTGTTSAITFPEEQEDPRITRGQDEASAGGIWGFIKGVAGNPMVKSVLDKTKHSVESMITTLDPGMAPYIKSGGELDIVVTSNKEVKVAAVRDAFQEVFGLAVVVGEAGQSNIAPQPVGYAAGLKGAQERIDSLRRTGVIHEKQTAVSVENFIAELLPDKWFDIGCLVVEDPVHGIHLETFTQATPVPLEFVQQAQSLTPQDYNLRWSGLLVTVGEVLEKSLLNVSRTDWHMAFTGMSRRQMIYSAARAIAGMYKQRLPPRTV [PRRC1] | -0.346 | 58.8 °C | 58 °C | 0.495 | -1.27 | -1.08 |
| MAAPAQQTTQPGGGKRKGKAQYVLAKRARRCDAGGPRQLEPGLQGILITCNMNERKCVEEAYSLLNEYGDDMYGPEKFTDKDQQPSGSEGEDDDAEAALKKEVGDIKASTEMRLRRFQSVESGANNVVFIRTLGIEPEKLVHHILQDMYKTKKKKTRVILRMLPISGTCKAFLEDMKKYAETFLEPWFKAPNKGTFQIVYKSRNNSHVNREEVIRELAGIVCTLNSENKVDLTNPQYTVVVEIIKAVCCLSVVKDYMLFRKYNLQEVVKSPKDPSQLNSKQGNGKEAKLESADKSDQNNTAEGKNNQQVPENTEELGQTKPTSNPQVVNEGGAKPELASQATEGSKSNENDFS [THUMPD1] | -0.0115 | 53.7 °C | 54.3 °C | 0.555 | 0.34 | 2.04 |
| MATDSWALAVDEQEAAVKSMTNLQIKEEKVKADTNGIIKTSTTAEKTDEEEKEDRAAQSLLNKLIRSNLVDNTNQVEVLQRDPNSPLYSVKSFEELRLKPQLLQGVYAMGFNRPSKIQENALPMMLAEPPQNLIAQSQSGTGKTAAFVLAMLSRVEPSDRYPQCLCLSPTYELALQTGKVIEQMGKFYPELKLAYAVRGNKLERGQKISEQIVIGTPGTVLDWCSKLKFIDPKKIKVFVLDEADVMIATQGHQDQSIRIQRMLPRNCQMLLFSATFEDSVWKFAQKVVPDPNVIKLKREEETLDTIKQYYVLCSSRDEKFQALCNLYGAITIAQAMIFCHTRKTASWLAAELSKEGHQVALLSGEMMVEQRAAVIERFREGKEKVLVTTNVCARGIDVEQVSVVINFDLPVDKDGNPDNETYLHRIGRTGRFGKRGLAVNMVDSKHSMNILNRIQEHFNKKIERLDTDDLDEIEKIAN [DDX19A] | -0.05 | 49.9 °C | 49.9 °C | 0.212 | 1.53 | 0.923 |
| MAGVSFSGHRLELLAAYEEVIREESAADWALYTYEDGSDDLKLAASGEGGLQELSGHFENQKVMYGFCSVKDSQAALPKYVLINWVGEDVPDARKCACASHVAKVAEFFQGVDVIVNASSVEDIDAGAIGQRLSNGLARLSSPVLHRLRLREDENAEPVGTTYQKTDAAVEMKRINREQFWEQAKKEEELRKEEERKKALDERLRFEQERMEQERQEQEERERRYREREQQIEEHRRKQQTLEAEEAKRRLKEQSIFGDHRDEEEETHMKKSESEVEEAAAIIAQRPDNPREFFKQQERVASASAGSCDVPSPFNHRPGSHLDSHRRMAPTPIPTRSPSDSSTASTPVAEQIERALDEVTSSQPPPLPPPPPPAQETQEPSPILDSEETRAAAPQAWAGPMEEPPQAQAPPRGPGSPAEDLMFMESAEQAVLAAPVEPATADATEIHDAADTIETDTATADTTVANNVPPAATSLIDLWPGNGEGASTLQGEPRAPTPPSGTEVTLAEVPLLDEVAPEPLLPAGEGCATLLNFDELPEPPATFCDPEEVEGESLAAPQTPTLPSALEELEQEQEPEPHLLTNGETTQKEGTQASEGYFSQSQEEEFAQSEELCAKAPPPVFYNKPPEIDITCWDADPVPEEEEGFEGGD [DBN1] | 0.101 | 52.3 °C | 52.1 °C | -1.2 | -3.76 | -0.742 |
| PPIC | -0.103 | 53.6 °C | 53.4 °C | 0.0897 | 1.01 | -0.315 |
| MAGSSTGGGGVGETKVIYHLDEEETPYLVKIPVPAERITLGDFKSVLQRPAGAKYFFKSMDQDFGVVKEEISDDNARLPCFNGRVVSWLVSSDNPQPEMAPPVHEPRAELAPPAPPLPPLPPERTSGIGDSRPPSFHPNVSSSHENLEPETETESVVSLRRERPRRRDSSEHGAGGHRTGGPSRLERHLAGYESSSTLMTSELESTSLGDSDEEDTMSRFSSSTEQSSASRLLKRHRRRRKQRPPRLERTSSFSSVTDSTMSLNIITVTLNMEKYNFLGISIVGQSNERGDGGIYIGSIMKGGAVAADGRIEPGDMLLQVNDMNFENMSNDDAVRVLRDIVHKPGPIVLTVAKCWDPSPQAYFTLPRNEPIQPIDPAAWVSHSAALTGTFPAYPGSSSMSTITSGSSLPDGCEGRGLSVHTDMASVTKAMAAPESGLEVRDRMWLKITIPNAFLGSDVVDWLYHHVEGFPERREARKYASGLLKAGLIRHTVNKITFSEQCYYVFGDLSGGCESYLVNLSLNDNDGSSGASDQDTLAPLPGATPWPLLPTFSYQYPAPHPYSPQPPPYHELSSYTYGGGSASSQHSEGSRSSGSTRSDGGAGRTGRPEERAPESKSGSGSESEPSSRGGSLRRGGEASGTSDGGPPPSRGSTGGAPNLRAHPGLHPYGPPPGMALPYNPMMVVMMPPPPPPVPPAVQPPGAPPVRDLGSVPPELTASRQSFHMAMGNPSEFFVDVM [DVL2] | -0.0693 | 47 °C | 48.7 °C | -0.00889 | 0.348 | 0.985 |
| SLC7A5 | -0.0332 | 60.4 °C | 57.8 °C | 0.0865 | -2.12 | -3.93 |
